Experimental findings from patent publication US8003854B2, “GRG32: a novel EPSP synthase gene conferring herbicide resistance” (Athenix Corp., priority 2006, dated 2011) are described below.

For the test, the system named is E. coli cells. The test can be described thus: Glyphosate screen: growth of pRSF1b clones on M63+ plates with glyphosate. It is filed as cell-based. Particulars: two days at 37° C. As for the experimental part:
The pRSF1b clones were plated onto M63+ plates containing antibiotic and either 0 mM or 50 mM glyphosate. Growth was scored after two days growth at 37° C.

B1: GRG32: glyphosate-resistant EPSP synthase; predicted translation product of grg32 (SEQ ID NO:2), expressed from clone pAX1950 in pRSF1b (protein)
chain: MTASASWTARKGQPLQGSLTIPGDKSVSHRAVMFAALADGVSHIDGFLEGEDTRATAAIFSQMGVRIETPSPSQRIVHGVGVDGLQAPAGPLDCGNAGTGMRLLAGLLAAQPFDAVMVGDESLSRRPMRRVTGPLAQMGAKIDTEADGTPPLRVHGGQPLHGIDFASPVASAQVKSAVLLAGLYAQGETSVTEPHPTRDYSERMLRAFGVEIEFSPGKARLRGGQRLRATDIAVPADFSSAAFFLVAASIIPGSALTLRQVGLNPRRTGLLAALRLMGADIREENHAEQGGEAVADLVVRHAPLHGAEIPEALVPDMIDEFPALFVAAAAAQGNTIVRGAAELRVKESDRLAAMATGLRSLGVQVDETEDGATIHGGHELGSGTIESHGDHRIAMAFAIAGQLSSGEVRINDIANVATSFPNFDGIARTAGFNLG
modifications: Isolated from soil sample
Turning to B1, the “resistance to 50 mM glyphosate in E. coli cells” value is “confer resistance”.
